Tests used:
[1] = molecular target: Human IgE antibody (human); assay: cell-based or functional assay
[2] = molecular target: IgG1; assay: cell-based or functional assay

B1: FP19 (Fc fusion)
chain: DKTHTCPPCPAPEAAGAPSVFLFPPKPKDTLMISRTPEVTCVVVDVSHEDPEVKFNWYVDGVEVHNAKTKPREEQQNSTYRVVSVLTVLHQDWLNGKEYKCKVSNKALKAPIEKTISKAKGQPREPQVYTLPPSRDELTKNQVSLTCLVKGFYPSDIAVEWESNGQPENNYKTTPPVLDSDGSFFLYSKLTVDKSRWQQGNVFSCSVMHEALHNHYTQKSLSLSPGGGGSGGGGSGGGGSTALGRRKAEDRIKETLWADGVKIDEKDFEHIKSSHEDYFAVEYGKGSGYYDVNKKMDSEDSALCVGAVVTNMFHWWVDQNRENIEKFKKQDPENNGVMKFEGVKEATVDELNHFYRDNRDNYADQSRFFDLIKKHFGNKALNPEELFELYFNGFYYGSSHRYIEDNEPAQNNLFSKVLENNKLLNPERSYGIDGFSNNVINALKSHKVLGLVYTTPLRYRHIISMWGADIDQDGKVKAIYVTDSDDREITFNDNSKRRIGMIRYDVLVDDNGNIRFTGKGATHKEEGAIYAGLYSLSRGDEVWEDYFKKYPEVQENL
- EC50 CE-SDS IgE [1]: 21.8 nM
- EC50 MSD IgE [1]: 1.2 nM
- EC50 CE-SDS IgG1 [2]: 7240 nM

Source: patent US20250340857A1 (SEISMIC THERAPEUTIC, published 2025)
